Test results from patent US20260055162A1.

Tests used:
Test in all cases: cell-based or functional assay
[1] = biological target: AA-TGFB-074 (TGFB-074), TGF-BR2 ECD-LFA2 TM-LFA2 ICD
[2] = biological target: AA-TGFB-021 (TGFB-021), TGF-BR2 ECD-CD28 TM-CD3z ICD
[3] = biological target: AA-TGFB-066 (TGFB-066), TGF-BR2 ECD-CD28 Long TM-GRB2 ICD
[4] = biological target: AA-TGFB-078 (TGFB-078), TGF-BR2 ECD-CSF1R TM-CSF1R ICD
[5] = biological target: AA-TGFB-051 (TGFB-051), TGF-BR2 ECD-CD28 TM-DAP10v2 ICD
AA-TGFB-051 (TGFB-051), TGF-BR2 ECD-CD28 TM-DAP10v2 ICD, sequence (chain, as listed by the source limits assumed, form in doubt): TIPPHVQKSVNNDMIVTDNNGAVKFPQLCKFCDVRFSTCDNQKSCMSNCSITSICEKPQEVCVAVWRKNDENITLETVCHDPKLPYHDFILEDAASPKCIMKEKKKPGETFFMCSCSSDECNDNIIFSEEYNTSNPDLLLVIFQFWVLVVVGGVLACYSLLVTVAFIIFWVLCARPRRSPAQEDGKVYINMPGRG

[6] = biological target: AA-TGFB-067 (TGFB-067), TGF-BR2 ECD-FCGR2A TM-FCGR2A ICD
AA-TGFB-067 (TGFB-067), TGF-BR2 ECD-FCGR2A TM-FCGR2A ICD, sequence (chain, as listed by the source limits assumed, form in doubt): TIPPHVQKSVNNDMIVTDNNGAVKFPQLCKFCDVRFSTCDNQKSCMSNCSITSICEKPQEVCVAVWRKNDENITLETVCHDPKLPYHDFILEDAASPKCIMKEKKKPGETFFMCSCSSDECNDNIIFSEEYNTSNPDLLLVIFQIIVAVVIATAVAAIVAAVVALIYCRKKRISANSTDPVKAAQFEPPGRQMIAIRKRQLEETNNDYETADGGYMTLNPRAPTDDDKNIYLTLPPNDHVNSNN

[7] = biological target: AA-TGFB-069 (TGFB-069), TGF-BR2 ECD-2B4 TM-2B4 ICD
AA-TGFB-069 (TGFB-069), TGF-BR2 ECD-2B4 TM-2B4 ICD, sequence (chain, as listed by the source limits assumed, form in doubt): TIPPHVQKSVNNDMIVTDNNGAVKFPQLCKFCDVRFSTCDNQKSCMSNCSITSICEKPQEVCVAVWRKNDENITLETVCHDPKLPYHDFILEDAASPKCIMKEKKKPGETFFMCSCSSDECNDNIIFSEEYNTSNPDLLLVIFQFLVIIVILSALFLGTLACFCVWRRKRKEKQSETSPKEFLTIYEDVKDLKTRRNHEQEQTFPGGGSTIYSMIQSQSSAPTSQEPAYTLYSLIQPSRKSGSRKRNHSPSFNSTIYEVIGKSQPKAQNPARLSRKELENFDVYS

[8] = biological target: AA-TGFB-081 (TGFB-081), TGF-BR2 ECD-ICOS TM-ICOS ICD
AA-TGFB-081 (TGFB-081), TGF-BR2 ECD-ICOS TM-ICOS ICD, sequence (chain, as listed by the source limits assumed, form in doubt): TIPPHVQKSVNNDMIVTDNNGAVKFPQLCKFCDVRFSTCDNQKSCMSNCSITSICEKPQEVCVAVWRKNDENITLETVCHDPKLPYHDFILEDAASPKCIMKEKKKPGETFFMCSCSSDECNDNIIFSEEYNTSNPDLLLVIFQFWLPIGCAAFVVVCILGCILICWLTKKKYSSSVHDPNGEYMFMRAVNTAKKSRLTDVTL

[9] = biological target: AA-TGFB-084 (TGFB-084), TGF-BR2 ECD-NKp30 TM-NKp30 ICD
AA-TGFB-084 (TGFB-084), TGF-BR2 ECD-NKp30 TM-NKp30 ICD, sequence (chain, as listed by the source limits assumed, form in doubt): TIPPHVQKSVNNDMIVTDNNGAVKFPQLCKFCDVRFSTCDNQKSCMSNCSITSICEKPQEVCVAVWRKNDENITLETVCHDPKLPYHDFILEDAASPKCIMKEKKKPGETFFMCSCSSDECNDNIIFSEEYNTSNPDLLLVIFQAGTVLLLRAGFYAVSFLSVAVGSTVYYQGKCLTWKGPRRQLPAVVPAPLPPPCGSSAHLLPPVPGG

[10] = biological target: AA-TGFB-095 (TGFB-095), TGF-BR2 ECD-CD28 Long TM-YES1 ICD
[11] = biological target: AA-TGFB-082 (TGFB-082), TGF-BR2 ECD-NKp46 TM-NKp46 ICD
AA-TGFB-082 (TGFB-082), TGF-BR2 ECD-NKp46 TM-NKp46 ICD, sequence (chain, as listed by the source limits assumed, form in doubt): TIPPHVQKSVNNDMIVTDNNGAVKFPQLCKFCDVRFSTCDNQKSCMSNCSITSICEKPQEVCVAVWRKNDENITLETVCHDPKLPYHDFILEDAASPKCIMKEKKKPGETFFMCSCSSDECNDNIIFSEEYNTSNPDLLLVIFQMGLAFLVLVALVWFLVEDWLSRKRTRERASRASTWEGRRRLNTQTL

[12] = biological target: AA-TGFB-059 (TGFB-059), TGF-BR2 ECD-CD28 Long TM-TRAF1 ICD
AA-TGFB-059 (TGFB-059), TGF-BR2 ECD-CD28 Long TM-TRAF1 ICD, sequence (chain, as listed by the source limits assumed, form in doubt): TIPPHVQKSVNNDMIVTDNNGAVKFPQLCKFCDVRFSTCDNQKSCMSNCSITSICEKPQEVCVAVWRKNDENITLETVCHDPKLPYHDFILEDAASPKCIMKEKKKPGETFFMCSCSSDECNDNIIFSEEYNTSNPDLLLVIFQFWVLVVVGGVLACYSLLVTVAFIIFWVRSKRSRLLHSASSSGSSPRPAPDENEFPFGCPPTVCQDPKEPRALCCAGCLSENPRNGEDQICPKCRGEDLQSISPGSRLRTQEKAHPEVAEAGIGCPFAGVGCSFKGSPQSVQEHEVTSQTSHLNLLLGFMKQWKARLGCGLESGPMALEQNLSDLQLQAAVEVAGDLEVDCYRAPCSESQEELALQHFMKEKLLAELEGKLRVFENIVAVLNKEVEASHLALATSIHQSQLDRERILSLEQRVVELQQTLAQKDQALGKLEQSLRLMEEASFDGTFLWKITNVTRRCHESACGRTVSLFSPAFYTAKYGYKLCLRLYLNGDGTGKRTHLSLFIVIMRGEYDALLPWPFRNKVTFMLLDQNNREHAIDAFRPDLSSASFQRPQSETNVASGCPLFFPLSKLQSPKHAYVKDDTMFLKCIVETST

[13] = biological target: AA-TGFB-065 (TGFB-065), TGF-BR2 ECD-CD28 Long TM-BLNK ICD
AA-TGFB-065 (TGFB-065), TGF-BR2 ECD-CD28 Long TM-BLNK ICD, sequence (chain, as listed by the source limits assumed, form in doubt): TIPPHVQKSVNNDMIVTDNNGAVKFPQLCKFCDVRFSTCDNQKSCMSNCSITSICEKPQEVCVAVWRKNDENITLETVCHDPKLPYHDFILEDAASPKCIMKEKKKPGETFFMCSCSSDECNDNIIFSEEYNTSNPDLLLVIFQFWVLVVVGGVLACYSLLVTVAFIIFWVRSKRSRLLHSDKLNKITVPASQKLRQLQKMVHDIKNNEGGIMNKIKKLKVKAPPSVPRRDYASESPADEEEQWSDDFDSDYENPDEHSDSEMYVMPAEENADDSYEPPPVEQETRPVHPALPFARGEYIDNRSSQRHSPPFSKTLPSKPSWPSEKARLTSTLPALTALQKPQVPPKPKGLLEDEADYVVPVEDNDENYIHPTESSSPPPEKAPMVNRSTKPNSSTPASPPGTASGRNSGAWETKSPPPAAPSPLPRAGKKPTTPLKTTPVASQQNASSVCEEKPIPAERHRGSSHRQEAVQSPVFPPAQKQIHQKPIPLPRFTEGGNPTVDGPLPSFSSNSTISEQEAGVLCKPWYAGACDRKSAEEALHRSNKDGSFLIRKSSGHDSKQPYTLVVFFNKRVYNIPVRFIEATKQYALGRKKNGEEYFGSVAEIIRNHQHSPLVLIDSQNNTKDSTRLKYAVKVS

[14] = biological target: AA-TGFB-088 (TGFB-088), TGF-BR2 ECD-DR3 TM-DR3 ICD
[15] = biological target: AA-TGFB-070 (TGFB-070), TGF-BR2 ECD-SLAMF1 TM-SLAMF1 ICD
AA-TGFB-070 (TGFB-070), TGF-BR2 ECD-SLAMF1 TM-SLAMF1 ICD, sequence (chain, as listed by the source limits assumed, form in doubt): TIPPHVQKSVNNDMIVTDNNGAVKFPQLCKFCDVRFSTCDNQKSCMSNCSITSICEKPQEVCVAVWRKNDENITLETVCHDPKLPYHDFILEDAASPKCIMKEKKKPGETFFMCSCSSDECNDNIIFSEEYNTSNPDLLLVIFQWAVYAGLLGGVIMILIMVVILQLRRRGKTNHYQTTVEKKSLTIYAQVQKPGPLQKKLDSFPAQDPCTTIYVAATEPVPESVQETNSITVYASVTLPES

[16] = biological target: AA-TGFB-091 (TGFB-091), TGF-BR2 ECD-CD28 Long TM-Syk ICD
[17] = biological target: AA-TGFB-062 (TGFB-062), TGF-BR2 ECD-CD28 Long TM-TRAF6 ICD
AA-TGFB-062 (TGFB-062), TGF-BR2 ECD-CD28 Long TM-TRAF6 ICD, sequence (chain, as listed by the source limits assumed, form in doubt): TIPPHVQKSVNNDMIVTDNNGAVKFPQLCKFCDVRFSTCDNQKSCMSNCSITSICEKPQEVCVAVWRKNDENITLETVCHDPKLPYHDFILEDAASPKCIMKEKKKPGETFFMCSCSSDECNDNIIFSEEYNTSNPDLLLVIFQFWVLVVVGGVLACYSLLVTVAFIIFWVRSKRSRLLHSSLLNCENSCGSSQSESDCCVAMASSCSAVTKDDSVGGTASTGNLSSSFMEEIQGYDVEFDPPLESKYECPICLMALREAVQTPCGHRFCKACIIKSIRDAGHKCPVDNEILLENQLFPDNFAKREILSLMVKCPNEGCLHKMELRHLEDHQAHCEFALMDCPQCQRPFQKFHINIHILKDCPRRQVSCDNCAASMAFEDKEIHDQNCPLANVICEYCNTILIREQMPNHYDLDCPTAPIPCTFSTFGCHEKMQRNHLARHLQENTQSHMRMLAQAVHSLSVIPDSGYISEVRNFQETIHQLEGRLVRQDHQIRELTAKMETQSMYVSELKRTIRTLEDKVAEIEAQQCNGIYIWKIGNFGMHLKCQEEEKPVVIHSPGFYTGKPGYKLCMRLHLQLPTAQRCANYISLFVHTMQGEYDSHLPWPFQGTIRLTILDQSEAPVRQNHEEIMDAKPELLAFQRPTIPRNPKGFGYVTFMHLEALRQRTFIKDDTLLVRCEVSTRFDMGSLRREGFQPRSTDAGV

recombinant TGF-B1 cytokine, sequence (P01137 279-390 limits assumed): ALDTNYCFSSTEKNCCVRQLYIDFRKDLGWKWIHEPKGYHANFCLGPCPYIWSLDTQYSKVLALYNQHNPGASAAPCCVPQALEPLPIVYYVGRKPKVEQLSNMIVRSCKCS
AA-TGFB-066 (TGFB-066), TGF-BR2 ECD-CD28 Long TM-GRB2 ICD, sequence (chain, as listed by the source limits assumed, form in doubt): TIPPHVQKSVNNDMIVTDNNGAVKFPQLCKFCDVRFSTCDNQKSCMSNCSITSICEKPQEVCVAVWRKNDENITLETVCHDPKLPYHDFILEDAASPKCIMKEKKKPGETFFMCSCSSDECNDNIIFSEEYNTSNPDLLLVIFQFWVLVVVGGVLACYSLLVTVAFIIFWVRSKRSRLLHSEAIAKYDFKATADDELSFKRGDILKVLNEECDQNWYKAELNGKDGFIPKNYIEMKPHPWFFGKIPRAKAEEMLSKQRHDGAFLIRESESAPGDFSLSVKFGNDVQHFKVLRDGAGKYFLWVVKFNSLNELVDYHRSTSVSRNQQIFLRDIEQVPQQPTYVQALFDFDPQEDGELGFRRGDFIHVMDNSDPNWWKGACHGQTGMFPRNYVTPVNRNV
AA-TGFB-021 (TGFB-021), TGF-BR2 ECD-CD28 TM-CD3z ICD, sequence (chain, as listed by the source limits assumed, form in doubt): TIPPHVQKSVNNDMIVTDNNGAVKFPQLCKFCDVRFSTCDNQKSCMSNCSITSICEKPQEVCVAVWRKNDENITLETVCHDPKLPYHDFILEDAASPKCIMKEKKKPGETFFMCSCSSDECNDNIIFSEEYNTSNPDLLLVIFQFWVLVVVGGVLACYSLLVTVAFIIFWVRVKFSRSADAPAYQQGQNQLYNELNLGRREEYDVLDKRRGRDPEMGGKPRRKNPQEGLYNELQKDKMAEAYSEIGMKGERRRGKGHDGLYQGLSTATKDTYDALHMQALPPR
AA-TGFB-074 (TGFB-074), TGF-BR2 ECD-LFA2 TM-LFA2 ICD, sequence (chain, as listed by the source limits assumed, form in doubt): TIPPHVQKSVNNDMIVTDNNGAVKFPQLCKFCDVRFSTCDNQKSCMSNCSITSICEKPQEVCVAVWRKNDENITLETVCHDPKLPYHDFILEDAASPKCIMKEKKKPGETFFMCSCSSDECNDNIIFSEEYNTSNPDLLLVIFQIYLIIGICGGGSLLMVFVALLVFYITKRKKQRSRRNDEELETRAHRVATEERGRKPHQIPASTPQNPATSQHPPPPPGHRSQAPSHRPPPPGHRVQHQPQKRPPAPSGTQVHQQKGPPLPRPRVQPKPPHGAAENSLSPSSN

recombinant TGF-B1 cytokine (from UniProt P01137 279-390) (ligand)
5-Day Fold Expansion of NK cells, 10 ng/mL TGF-B1 [1]: 2.4 fold
Average % Killing (SKOV-3), 10 ng/mL TGF-B1 [1]: 11.2%
Average IFNg Secretion, 10 ng/mL TGF-B1 [1]: 5730 pg/mL
Average IP-10 Secretion, 10 ng/mL TGF-B1 [1]: 1170
5-Day Fold Expansion of NK cells, 10 ng/mL TGF-B1 [2]: 0.45 fold
Average % Killing (SKOV-3), 10 ng/mL TGF-B1 [2]: 2.26%
CD69, fold-change of MFI over no stimulation, High (0.05 ug/mL) [2]: 93 fold
CD69, fold-change of MFI over no stimulation, Low (0.002 ug/mL) [2]: 21.5 fold
CD69, fold-change of MFI over no stimulation, Med. (0.01 ug/mL) [2]: 62.2 fold
GFP, fold-change of MFI over no stimulation, High (0.05 ug/mL) [2]: 10.1 fold
GFP, fold-change of MFI over no stimulation, Low (0.002 ug/mL) [2]: 2.8 fold
GFP, fold-change of MFI over no stimulation, Med. (0.01 ug/mL) [2]: 9.3 fold
5-Day Fold Expansion of NK cells, 10 ng/mL TGF-B1 [3]: 1.44 fold
Average % Killing (SKOV-3), 10 ng/mL TGF-B1 [3]: 8.89%
Average IFNg Secretion, 10 ng/mL TGF-B1 [3]: 3270 pg/mL
Average IP-10 Secretion, 10 ng/mL TGF-B1 [3]: 1240
5-Day Fold Expansion of NK cells, 10 ng/mL TGF-B1 [4]: 2.14 fold
Average % Killing (SKOV-3), 10 ng/mL TGF-B1 [4]: 15.2%
Average IFNg Secretion, 10 ng/mL TGF-B1 [4]: 6320 pg/mL
Average IP-10 Secretion, 10 ng/mL TGF-B1 [4]: 1000
5-Day Fold Expansion of NK cells, 10 ng/mL TGF-B1 [5]: 1.42 fold
Average % Killing (SKOV-3), 10 ng/mL TGF-B1 [5]: 11.4%
Average IFNg Secretion, 10 ng/mL TGF-B1 [5]: 4200 pg/mL
Average IP-10 Secretion, 10 ng/mL TGF-B1 [5]: 671
5-Day Fold Expansion of NK cells, 10 ng/mL TGF-B1 [6]: 1.6 fold
Average % Killing (SKOV-3), 10 ng/mL TGF-B1 [6]: 11.8%
Average IFNg Secretion, 10 ng/mL TGF-B1 [6]: 4640 pg/mL
Average IP-10 Secretion, 10 ng/mL TGF-B1 [6]: 1040
5-Day Fold Expansion of NK cells, 10 ng/mL TGF-B1 [7]: 3.86 fold
Average % Killing (SKOV-3), 10 ng/mL TGF-B1 [7]: 14.4%
Average IFNg Secretion, 10 ng/mL TGF-B1 [7]: > 9000 pg/mL
Average IP-10 Secretion, 10 ng/mL TGF-B1 [7]: 2340
5-Day Fold Expansion of NK cells, 10 ng/mL TGF-B1 [8]: 2.31 fold
Average % Killing (SKOV-3), 10 ng/mL TGF-B1 [8]: 18.8%
Average IFNg Secretion, 10 ng/mL TGF-B1 [8]: > 9000 pg/mL
Average IP-10 Secretion, 10 ng/mL TGF-B1 [8]: 2180
5-Day Fold Expansion of NK cells, 10 ng/mL TGF-B1 [9]: 2.19 fold
Average % Killing (SKOV-3), 10 ng/mL TGF-B1 [9]: 13.7%
Average IFNg Secretion, 10 ng/mL TGF-B1 [9]: 4870 pg/mL
Average IP-10 Secretion, 10 ng/mL TGF-B1 [9]: 1340
5-Day Fold Expansion of NK cells, 10 ng/mL TGF-B1 [10]: 1.69 fold
Average % Killing (SKOV-3), 10 ng/mL TGF-B1 [10]: 11.8%
Average IFNg Secretion, 10 ng/mL TGF-B1 [10]: 6080 pg/mL
Average IP-10 Secretion, 10 ng/mL TGF-B1 [10]: 1890
5-Day Fold Expansion of NK cells, 10 ng/mL TGF-B1 [11]: 3.26 fold
Average % Killing (SKOV-3), 10 ng/mL TGF-B1 [11]: 20.4%
Average IFNg Secretion, 10 ng/mL TGF-B1 [11]: 7170 pg/mL
Average IP-10 Secretion, 10 ng/mL TGF-B1 [11]: 1350
5-Day Fold Expansion of NK cells, 10 ng/mL TGF-B1 [12]: 0.9 fold
Average % Killing (SKOV-3), 10 ng/mL TGF-B1 [12]: 7.99%
Average IFNg Secretion, 10 ng/mL TGF-B1 [12]: 3060 pg/mL
Average IP-10 Secretion, 10 ng/mL TGF-B1 [12]: 1300
5-Day Fold Expansion of NK cells, 10 ng/mL TGF-B1 [13]: 0.71 fold
Average % Killing (SKOV-3), 10 ng/mL TGF-B1 [13]: 9.68%
Average IFNg Secretion, 10 ng/mL TGF-B1 [13]: 3130 pg/mL
Average IP-10 Secretion, 10 ng/mL TGF-B1 [13]: 1030
5-Day Fold Expansion of NK cells, 10 ng/mL TGF-B1 [14]: 0.66 fold
Average % Killing (SKOV-3), 10 ng/mL TGF-B1 [14]: 2.23%
5-Day Fold Expansion of NK cells, 10 ng/mL TGF-B1 [15]: 4.03 fold
Average % Killing (SKOV-3), 10 ng/mL TGF-B1 [15]: 13.2%
Average IFNg Secretion, 10 ng/mL TGF-B1 [15]: 7690 pg/mL
Average IP-10 Secretion, 10 ng/mL TGF-B1 [15]: 1630
5-Day Fold Expansion of NK cells, 10 ng/mL TGF-B1 [16]: 0.24 fold
Average % Killing (SKOV-3), 10 ng/mL TGF-B1 [16]: 1.9%
5-Day Fold Expansion of NK cells, 10 ng/mL TGF-B1 [17]: 1.41 fold
Average % Killing (SKOV-3), 10 ng/mL TGF-B1 [17]: 8.4%
Average IFNg Secretion, 10 ng/mL TGF-B1 [17]: 3010 pg/mL
Average IP-10 Secretion, 10 ng/mL TGF-B1 [17]: 1370
